In general, Kd refers to the free concentration of one partner at which half of the binding sites on the other are occupied at equilibrium, for simple one-to-one binding.

Consider 43 molecules from US20220184221A1 (NUVOBIO, published 2022).

Where no end group is shown, it is not given here. [ ]: non-standard residue; d: D form. Nle = CCCC[C@H](N)C(=O)O

Test [1] concerns the target T1, recombinant KDM5C (Homo sapiens (Human), UniProt P41229 1-765).
T1 construct: Expressed in SF9 cells from baculovirus, purified on Ni-NTA and detected with an anti-His antibody; also called KDM5C-His6; JARID1CA-c022; not shown: His tag (KDM5C-His6, vector pFB-CT10HF-LIC)
T1 sequence: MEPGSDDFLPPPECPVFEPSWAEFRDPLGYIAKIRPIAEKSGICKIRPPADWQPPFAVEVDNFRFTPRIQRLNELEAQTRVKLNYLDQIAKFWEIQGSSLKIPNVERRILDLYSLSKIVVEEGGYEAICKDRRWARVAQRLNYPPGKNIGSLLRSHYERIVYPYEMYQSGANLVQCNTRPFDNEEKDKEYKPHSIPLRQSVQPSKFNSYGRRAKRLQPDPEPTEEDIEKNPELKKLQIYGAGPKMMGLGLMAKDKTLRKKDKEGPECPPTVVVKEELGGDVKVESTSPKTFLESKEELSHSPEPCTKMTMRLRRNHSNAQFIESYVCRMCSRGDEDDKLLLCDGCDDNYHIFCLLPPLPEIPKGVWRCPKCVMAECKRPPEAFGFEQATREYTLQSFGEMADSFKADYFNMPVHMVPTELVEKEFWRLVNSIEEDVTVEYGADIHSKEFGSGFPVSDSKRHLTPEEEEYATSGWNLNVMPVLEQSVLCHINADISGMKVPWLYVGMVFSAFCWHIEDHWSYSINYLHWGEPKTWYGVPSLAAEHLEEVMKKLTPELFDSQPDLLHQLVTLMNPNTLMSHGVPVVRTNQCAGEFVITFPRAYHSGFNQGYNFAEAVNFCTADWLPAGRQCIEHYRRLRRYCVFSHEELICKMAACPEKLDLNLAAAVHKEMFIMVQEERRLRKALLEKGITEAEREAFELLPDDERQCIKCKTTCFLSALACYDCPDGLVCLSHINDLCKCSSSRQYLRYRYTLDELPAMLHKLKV
Description: OPAL peptide arrays on cellulose probed with 1 uM His-tagged KDM5C, anti-His-HRP chemiluminescence.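 Further: binding of target protein to each arrayed peptide after overnight incubation at 4 °C, read as densitometric chemiluminescence signal intensity per spot.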

The target of test [2] is T1, recombinant KDM5C. Description: fluorescence polarization; fluorescein-labelled peptide, recombinant KDM5C serially diluted. A general note: Fluorescence polarisation rises when a labelled molecule tumbles more slowly, as on binding a larger partner.
Description: Recombinant KDM5C protein was serially diluted in a 384-well plate, followed by the addition of fluorescein-labeled inhibitor peptide in PBS buffer. The mixtures were incubated in the dark for 30 min prior to fluorescent polarization measurements at room temperature on an EnVision Multilabel Plate Reader (PerkinElmer) with the excitation set at 480 nm and emission at 535 nm. Binding curves were generated by fitting the binding data to a hyperbolic nonlinear regression model using Prism 3.0 (GraphPad software, Inc., San Diego, Calif.), which also produced the corresponding dissociation constants (Kd).

For the molecule TTQS[Nle]THHH [EP26], the binding result with recombinant KDM5C [1] is “binds”.

As for TTQT[Nle]THHH [EP36], the binding result with recombinant KDM5C [1] is “binds”.

TTQQ[Nle]THHH [EP31]: the binding result in the test with recombinant KDM5C [1] is reported as “binds”.

With TDDQKTHHH [EP13], the binding result in the test with recombinant KDM5C [1] is recorded as “binds”.

Regarding TDTNKTHHH [EP3], the binding result with recombinant KDM5C [1] is on record as “binds”.

For TDDNKTHHH [EP20], the binding result with recombinant KDM5C [1] is “binds”.

Turning to TEESKTHHH [EP15], the binding result in the test with recombinant KDM5C [1] is “binds”.

On to TDTSKTHHH [EP7], for which the binding result with recombinant KDM5C [1] was “binds”.

TEDTKTHHH [EP8]: in the test with recombinant KDM5C [1], the binding result was “binds”.

Turning to TDTTKTHHH [EP1], the binding result with recombinant KDM5C [1] is “binds”.

For the molecule TDTQKTHHH [EP2], the binding result with recombinant KDM5C [1] is listed as “binds”.

B1: EP4 (peptide)
peptide: TEDSKTHHH
modifications: also: fluorescein label in FP assay, end not given here
notes: Fluorescein-labelled in the fluorescence polarization assay; also called EP4 peptide
Turning to B1, the Kd with recombinant KDM5C [2] was 0.11 nM.

As for TEEQKTHHH [EP9], the binding result in the test with recombinant KDM5C [1] was “binds”.

With TEENKTHHH [EP14], the binding result with recombinant KDM5C [1] is listed as “binds”.

As to TEDQKTHHH [EP5], the binding result in the test with recombinant KDM5C [1] is given as “binds”.

Take TDSTKTHHH [EP17]: in the test with recombinant KDM5C [1], the binding result was “binds”.

Consider GAKRHRKVLRDNI [EP43], for which the binding result in the test with recombinant KDM5C [1] was “binds”.

With GAKRHR[Nle]VLRDNI [EP44], the binding result in the test with recombinant KDM5C [1] is reported as “binds”.

In the case of SETQKTHHH [EP18], in the test with recombinant KDM5C [1], the binding result is listed as “binds”.

Take SETSKTHHH [EP19]: the binding result in the test with recombinant KDM5C [1] was “binds”.

With SDQQ[Nle]THHH [EP30], the binding result with recombinant KDM5C [1] is “binds”.

On to SDQT[Nle]THHH [EP32], for which the binding result with recombinant KDM5C [1] was “binds”.

As for SDQQKTHHH [EP10], the binding result in the test with recombinant KDM5C [1] is listed as “binds”.

Take SDQTKTHHH [EP12]: in the test with recombinant KDM5C [1], the binding result is reported as “binds”.

For the molecule SETQ[Nle]THHH [EP38], the binding result with recombinant KDM5C [1] was “binds”.

As for SETS[Nle]THHH [EP39], the binding result with recombinant KDM5C [1] is “binds”.

As for RTKQTARKSTGG [EP41], the binding result with recombinant KDM5C [1] is recorded as “binds”.

With TTQSKTHHH [EP6], the binding result in the test with recombinant KDM5C [1] was “binds”.

With TTQQKTHHH [EP11], in the test with recombinant KDM5C [1], the binding result is listed as “binds”.

For TTQTKTHHH [EP16], the binding result with recombinant KDM5C [1] is recorded as “binds”.

TDDQ[Nle]THHH [EP33]: the binding result with recombinant KDM5C [1] is “binds”.

TDDN[Nle]THHH [EP40]: the binding result with recombinant KDM5C [1] is on record as “binds”.

On to TEEQ[Nle]THHH [EP29], for which, in the test with recombinant KDM5C [1], the binding result is on record as “binds”.

For the molecule TEDS[Nle]THHH [EP24], the binding result with recombinant KDM5C [1] is “binds”.

For the molecule TEEN[Nle]THHH [EP34], the binding result in the test with recombinant KDM5C [1] was “binds”.

TDTS[Nle]THHH [EP27]: the binding result in the test with recombinant KDM5C [1] is “binds”.

For the molecule TDTQ[Nle]THHH [EP22], the binding result with recombinant KDM5C [1] was “binds”.

With TDST[Nle]THHH [EP37], the binding result with recombinant KDM5C [1] is “binds”.

Regarding TDTN[Nle]THHH [EP23], in the test with recombinant KDM5C [1], the binding result is listed as “binds”.

As to TEDT[Nle]THHH [EP28], the binding result with recombinant KDM5C [1] was “binds”.

On to TDTT[Nle]THHH [EP21], for which the binding result with recombinant KDM5C [1] is recorded as “binds”.

Consider TEES[Nle]THHH [EP35], for which, in the test with recombinant KDM5C [1], the binding result is on record as “binds”.

As to TEDQ[Nle]THHH [EP25], the binding result in the test with recombinant KDM5C [1] is recorded as “binds”.
